# Source: the RNAGym collection of RNA variant scans (doi:10.1073/pnas.2313332121)
# B1: TPR t1 (parent)
# chain: GACCAAUCUGCCCUCAGAGCUCGAGAACAUCUUCGGAUGCAGAGGAGGCAGGCUUCGGUGGCGCGAUAGCGCCAACGUCCUCAACCUCCAAUGCAUCCCACCACAUGAUGAUGCCUGAAGAGCCUUGGUUUUUUG
# Variants of: B1
# Test: polymerase ribozyme fitness, log enrichment relative to wild type (log ratio); higher = more active; in vitro selection for triplet polymerase activity
# Summary of the method: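 Only genotypes with ≥10 input reads and ≥1 read per output were kept after Illumina sequencing of input and output libraries. These libraries were PCR-built, transcribed mutants of each subunit of a heterodimeric triplet polymerase ribozyme, each put through one triplicate in vitro selection round with frozen incubation at −7 °C, gel excision of extended constructs, streptavidin-bead capture and RT-PCR. Fitness is a logarithmic ratio of genotype enrichment to wild-type enrichment, from inverse-variance-weighted replicate averages, with the logarithm in base 2.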
row,Variant,polymerase ribozyme fitness (log ratio)
1,C11G G51A C53G C124U U131G,-1.71
2,C11G C89A,-1.26
3,C11G G47A C88A G127C,-2.42
4,C11G G71A C80G G128A,-6.67
5,C11G C53G C62A C89A G122U,-3.13
6,C11G C49G A90U C124G U129C,-2.5
7,C11G C28G C86A C123U,-1.94
8,C11G C13A A16U C79U,-2.88
9,C11G G19C,-2.06
10,C11G G35A G117U,-6.34
11,C11A G45C C62U,-2.56
12,C11G C40U G69U A74G C79A C115A,-4
13,C11A G39U,-1.81
14,C11A G17U U112A U131G,-3.56
15,C11A U30G A37C U112C,-5.59
16,C11G U21A C49U G117C,-4.04
17,C11G G107A,-4.44
18,C11G C34U C86G A118U,-5.02
19,C11G C76U U78A,0.137
20,C11G A16U A24G G47C G63U A111C,-7.31
21,C11G G93C A105U A119U,-3.55
22,C11A G47U C56A C86A U106G,-3.84
23,C11A G17C,-4.25
24,C11A G17A,-6.16

row,Variant,polymerase ribozyme fitness (log ratio)
1,C11G G25U,-4.49
2,C11G G25A,-4.53
3,C11G C40U,-0.213
4,C11A G47A G69U G77U,-1.86
5,C11G G39A,0.759
6,C11G A37G C40G C72A C101U C123A,0.0924
7,C11G G44C C79G,-2.6
8,C11A C98U U125A,-2.97
9,C11G A50G C62U G110C,-4.81
10,C11G C53G,-1.43
11,C11G C104A U130A,-2.13
12,C11G A26C G60U C97U G120U U132A,-3.92
13,C11A C101A,-3.16
14,C11G G17A G71U U81A C85U G117C,-6.69
15,C11G U14C A41G C56G,-0.436
16,C11G A18U A41U G57A A74U C114U G128C,-4.05
17,C11A G93U,-1.93
18,C11G U21G C53A U55C,-0.805
19,C11G C79G C82A,-1.78
20,C11A G39A A43U U59C A91C G113A A118G C124G U125A,-4.98
21,C11G G52U C62G U116A,-5.35
22,C11G A46C,-1.01
23,C11G C12U U21G A37U,-2.2
24,C11G C13U C70G C97A A103C C123U,-7.22

row,Variant,polymerase ribozyme fitness (log ratio)
1,C11A U38G G48C C115G G122U,-2.9
2,C11G C12A G36C C72U C73U,-1.07
3,C11G C15A U59A C73A U125A,-1.02
4,C11A G61C A100C A121U,-1.61
5,C11G G77A U92A U129C,-4.39
6,C11A G60A C101A C124G,0.624
7,C11A U33G,-6.86
8,C11G G39U C56U,-0.805
9,C11G G57U G120A,1.4
10,C11A C89U,-2.53
11,C11G G17U A91C G117A,-1.55
12,C11A G61A C80U C98U A100U,-4.96
13,C11G C12G C104A U106A,-3.92
14,C11A G57U G93U,-3.77
15,C11G C94U C104G G113A,-5.51
16,C11A G52A,-1.58
17,C11A G52U,-2.14
18,C11G C82A,-0.254
19,C11G C85G G117A,-1.6
20,C11G C56G G57A U96C G113U,-3.3
21,C11G U21A C53G C114A,0.189
22,C11A U96G G113C U130A,-5.5
23,C11G A41C U87A U92G,-1.84
24,C11G U14A G19U U55G U92G A121G,-3.45

row,Variant,polymerase ribozyme fitness (log ratio)
1,C11A U33G G52U C56U C64G G120C,-6.81
2,C11G U78G A91G A95C G135U,-1.3
3,C11G G36U A43U C62U G63A C115U U125A U132A,-5.64
4,C11G A105U U112A A119G G120A G122A,-0.827
5,C11G C70A,-0.991
6,C11G C70G,-2.08
7,C11G C114U,-0.754
8,C11G C114G,-2.38
9,C11G C88A,-0.146
10,C11A G113C G135U,-4.88
11,C11A U87G C101G,-2.62
12,C11A G71C U125G G135U,-3.28
13,C11G U21A,-0.298
14,C11G U78C A90C,-0.723
15,C11G C15U G25C G69C A111C A118G,-6.31
16,C11G G44C C86G U126A,-2.2
17,C11G G57A G93A U96A,-2.56
18,C11A U30C U81A C104G A111U A119G U132C,-6.53
19,C11A G69C,-2.03
20,C11G C53A G61C,-4.59
21,C11G U59A C85A U87A,-1.45
22,C11A G60U U87C U112C G117A U130C,-5.25
23,C11G C76A C79U A90U A119C G120U,-0.651
24,C11G C94U U96A,-0.725

row,Variant,polymerase ribozyme fitness (log ratio)
1,C11G C15G G36U A74C G117C,0.809
2,C11G C101A,-0.692
3,C11A U38G C56U A90U,-3.35
4,C11G G135U,-0.0424
5,C11G G44A U133G,-1.89
6,C11G A37G G69C C115G,-3.53
7,C11G C20U G69U A84U C85U G122A U126G G128U,-2.39
8,C11G C15A A95U U130A,-2.76
9,C11G C12G C49U U55G A91G,-2.61
10,C11G U78C C82U G117A,-0.181
11,C11A G77U,-2.4
12,C11G G39A G120C G127C,0.971
13,C11G U78C C114A G120C,-0.166
14,C11A G36A C79U U87A,-4.09
15,C11G C22U G113U A119G,-5.79
16,C11G C13A,-2.58
17,C11G G122U,0.995
18,C11G G61U,0.628
19,C11G A108C,-4.07
20,C11G A46G C79U C82U C98U A118U,-0.917
21,C11A C115U,-2.42
22,C11G A121G G127U,0.00144
23,C11G C34U,-2.8
24,C11A G47A G77C A84G G128A,-4.94

row,Variant,polymerase ribozyme fitness (log ratio)
1,C11G G93U,0.289
2,C11G A95U U129C,-1.01
3,C11G U54C C62A A95C G128C,-3.23
4,C11G C15G G71U G93A G128U,-4.47
5,C11A G77A A84U G122A,-1.06
6,C11A U21C U112G,-0.593
7,C11G G36A G63C,-1.16
8,C11G C22U G36A,-4.08
9,C11A C94U,-1.19
10,C11A G58C U59G U81A,-2.19
11,C11G C56U A111U,-2.23
12,C11A G113A C114U U133G,-5
13,C11G C64U C98G U106C,-6.08
14,C11A U30C G63U C64U U81A C104G A111U A119G U132C,-6.95
15,C11G A29U G57A G60A C98U,-4.69
16,C11G G19U G36U A41U C53U C56A G93C C114A C124U U130A,-6.06
17,C11G C22U A50U C56A G57U C89U,-6.34
18,C11G A41U C56A C72U U92G,-1.47
19,C11G C40A C99U,-4.65
20,C11G C22G C53G C82U,-3.79
21,C11G C70A G127C,-2.16
22,C11G A50G C97G,-2.97
23,C11G A37U C72G A111C U129A U132C,-0.79
24,C11A G60U G71C U87C U112C G117A U130C,-7.15

row,Variant,polymerase ribozyme fitness (log ratio)
1,C11G G51C A84G U131C,-3.58
2,C11G G113U G128U,-3.42
3,C11G A37U G60U G77C,-1.22
4,C11G C49G C70U C88G A111U G127C,-5.65
5,C11G G122A C124G,1.83
6,C11A G48U U96G U112C,-1.36
7,C11G U59C,1.4
8,C11A G63C,-1.78
9,C11G A37C,-0.179
10,C11A G58C,-2.25
11,C11G G19A A37U C85G,-3.64
12,C11A U112G,-1.43
13,C11G A27U C49A G61A A84G,-4.25
14,C11G U21A C72G G110A,-3.29
15,C11A G47A C102A,-4.79
16,C11G C15G A90C G110A,-4.74
17,C11G C13U A37U A83C,-0.361
18,C11G C40U C53U A68G U87A A90U U112A G127C,-6.81
19,C11G A41G,0.309
20,C11G G58C C97A C104A,-4.9
21,C11G C49A C62A,-0.975
22,C11G C15A A29U G45C G77A G120A G128U,-5.34
23,C11A G61A C62A C80U G113C,-7.76
